The chains are these.
B1: Atlastin-1 (Homo sapiens), Q8WXF7 (parent)
chain: MAKNRRDRNSWGGFSEKTYEWSSEEEEPVKKAGPVQVLIVKDDHSFELDETALNRILLSEAVRDKEVVAVSVAGAFRKGKSFLMDFMLRYMYNQESVDWVGDYNEPLTGFSWRGGSERETTGIQIWSEIFLINKPDGKKVAVLLMDTQGTFDSQSTLRDSATVFALSTMISSIQVYNLSQNVQEDDLQHLQLFTEYGRLAMEETFLKPFQSLIFLVRDWSFPYEFSYGADGGAKFLEKRLKVSGNQHEELQNVRKHIHSCFTNISCFLLPHPGLKVATNPNFDGKLKEIDDEFIKNLKILIPWLLSPESLDIKEINGNKITCRGLVEYFKAYIKIYQGEELPHPKSMLQATAEANNLAAVATAKDTYNKKMEEICGGDKPFLAPNDLQTKHLQLKEESVKLFRGVKKMGGEEFSRRYLQQLESEIDELYIQYIKHNDSKNIFHAARTPATLFVVIFITYVIAGVTGFIGLDIIASLCNMIMGLTLITLCTWAYIRYSGEYRELGAVIDQVAAALWDQGSTNEALYKLYSAAATHRHLYHQAFPTPKSESTEQSEKKKM
partner: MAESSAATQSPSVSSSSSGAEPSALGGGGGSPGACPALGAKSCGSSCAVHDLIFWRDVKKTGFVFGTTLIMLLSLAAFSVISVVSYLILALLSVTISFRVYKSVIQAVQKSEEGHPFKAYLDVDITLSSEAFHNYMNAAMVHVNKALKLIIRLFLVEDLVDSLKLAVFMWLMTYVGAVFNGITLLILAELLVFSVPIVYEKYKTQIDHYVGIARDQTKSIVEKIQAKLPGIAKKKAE

Here are results for one variant from IntAct's records for PubMed 19665976.

The variants in the assay derive from B1. The following applies: with Rtn3, Q9ES97-3.
Regarding K80A, the “effect of a mutation on the interaction” value was “decreasing interaction”.
